B1: TRAF2225-501 (other, human, UniProt Q12933 225-501, looked up)
chain: ETVEGEKQQEHEVQWLREHLAMLLSSVLEAKPLLGDQSHAGSELLQRCESLEKKTATFENIVCVLNREVERVAMTAEACSRQHRLDQDKIEALSSKVQQLERSIGLKDLAMADLEQKVLEMEASTYDGVFIWKISDFARKRQEAVAGRIPAIFSPAFYTSRYGYKMCLRIYLNGDGTGRGTHLSLFFVVMKGPNDALLRWPFNQKVTLMLLDQNNREHVIDAFRPDVTSSSFQRPVNDMNIASGCPLFCPVSKMEAKNSYVRDDAIFIKAIVDLTGL
notes: range 225-501; Two-hybrid bait construct; also called C-terminal part of TRAF2, amino acids 225 to 501; C-terminal construct comprising the TRAF domain
B2: IREN 10B (other)
chain: MSGSQNNDKRQFLLERLLDAVKQCQIRFGGRKEIASDSDSRVTCLCAQFEAVLQHGLKRSRGLALTAAAIKQAAGFASKTETEPVFWYYVKEVLNKHELQRFYSLRHIASDVGRGRAWLRCALNEHSLERYLHMLLADRCRLSTFYEDWSFVMDEERSSMLPTMAAGLNSILFAINIDNKDLNGQSKFAPTVSDLLKESTQNVTSLLKESTQGVSSLFREITASSAVSILIKPEQETDPLPVVSRNVSADAKCKKERKKKKKVTNIISFDDEEDEQNSGDVFKKTPGAGESSEDNSDRSSVNIMSAFESPFGPNSNGSQSSNSWKIDSLSLNGEFGYQKLDVKSIDDEDVDENEDDVYGNSSGRKHRGHSESPEKPLEGNTCLSQMHSWAPLKVLHNDSDILFPVSGVGSYSPADAPLGSLENGTGPEDHVLPDPGLRYSVEASSPGHGSPLSSLLPSASVPESMTISELRQATVAMMNRKDELEEENRSLRNLLDGEMEHSAALRQEVDTLKRKVAEQEERQGMKVQALARENEVLKVQLKKYVGAVQMLKREGQTAEVPNLWSVDGEVTVAEQKPGEIAEELASSYERKLIEVAEMHGELIEFNERLHRALVAKEALVSQMRQELIDLRGPVPGDLSQTSEDQSLSDFEISNRALINVWIPSVFLRGKAANAFHVYQVYIRIKDDEWNIYRRYTEFRSLHHKLQNKYPQVRAYNFPPKKAIGNKDAKFVEERRKQLQNYLRSVMNKVIQMVPEFAASPKKETLIQLMPFFVDITPPGEPVNSRPKAASRFPKLSRGQPRETRNVEPQSGDL
notes: Splice isoform of IREN; Used as both bait and prey in yeast two-hybrid; also called clone 10B
B3: IREN198-388 (other)
chain: ESTQNVTSLLKESTQGVSSLFREITASSAVSILIKPEQETDPLPVVSRNVSADAKCKKERKKKKKVTNIISFDDEEDEQNSGDVFKKTPGAGESSEDNSDRSSVNIMSAFESPFGPNSNGSQSSNSWKIDSLSLNGEFGYQKLDVKSIDDEDVDENEDDVYGNSSGRKHRGHSESPEKPLEGNTCLSQMHS
notes: Two-hybrid prey construct
B4: IREN (other)
chain: MSGSQNNDKRQFLLERLLDAVKQCQIRFGGRKEIASDSDSRVTCLCAQFEAVLQHGLKRSRGLALTAAAIKQAAGFASKTETEPVFWYYVKEVLNKHELQRFYSLRHIASDVGRGRAWLRCALNEHSLERYLHMLLADRCRLSTFYEDWSFVMDEERSSMLPTMAAGLNSILFAINIDNKDLNGQSKFAPTVSDLLKESTQNVTSLLKESTQGVSSLFREITASSAVSILIKPEQETDPLPVVSRNVSADAKCKKERKKKKKVTNIISFDDEEDEQNSGDVFKKTPGAGESSEDNSDRSSVNIMSAFESPFGPNSNGSQSSNSWKIDSLSLNGEFGYQKLDVKSIDDEDVDENEDDVYGNSSGRKHRGHSESPEKPLEGNTCLSQMHSWAPLKVLHNDSDILFPVSGVGSYSPADAPLGSLENGTGPEDHVLPDPGLRYSVEASSPGHGSPLSSLLPSASVPESMTISELRQATVAMMNRKDELEEENRSLRNLLDGEMEHSAALRQEVDTLKRKVAEQEERQGMKVQALASYLCYFVRRF
notes: Tested in yeast two-hybrid as a hybrid protein; the fusion partner is not included in the chain; also called IκB REgulator; IREN protein
B5: human TRAF2 (other, UniProt Q12933 1-501, looked up)
chain: MAAASVTPPGSLELLQPGFSKTLLGTKLEAKYLCSACRNVLRRPFQAQCGHRYCSFCLASILSSGPQNCAACVHEGIYEEGISILESSSAFPDNAARREVESLPAVCPSDGCTWKGTLKEYESCHEGRCPLMLTECPACKGLVRLGEKERHLEHECPERSLSCRHCRAPCCGADVKAHHEVCPKFPLTCDGCGKKKIPREKFQDHVKTCGKCRVPCRFHAIGCLETVEGEKQQEHEVQWLREHLAMLLSSVLEAKPLLGDQSHAGSELLQRCESLEKKTATFENIVCVLNREVERVAMTAEACSRQHRLDQDKIEALSSKVQQLERSIGLKDLAMADLEQKVLEMEASTYDGVFIWKISDFARKRQEAVAGRIPAIFSPAFYTSRYGYKMCLRIYLNGDGTGRGTHLSLFFVVMKGPNDALLRWPFNQKVTLMLLDQNNREHVIDAFRPDVTSSSFQRPVNDMNIASGCPLFCPVSKMEAKNSYVRDDAIFIKAIVDLTGL
notes: range 1-501; the fusion partner is not included in the chain; also called hTRAF2; full length TRAF2
B6: IREN198-541 (other)
chain: ESTQNVTSLLKESTQGVSSLFREITASSAVSILIKPEQETDPLPVVSRNVSADAKCKKERKKKKKVTNIISFDDEEDEQNSGDVFKKTPGAGESSEDNSDRSSVNIMSAFESPFGPNSNGSQSSNSWKIDSLSLNGEFGYQKLDVKSIDDEDVDENEDDVYGNSSGRKHRGHSESPEKPLEGNTCLSQMHSWAPLKVLHNDSDILFPVSGVGSYSPADAPLGSLENGTGPEDHVLPDPGLRYSVEASSPGHGSPLSSLLPSASVPESMTISELRQATVAMMNRKDELEEENRSLRNLLDGEMEHSAALRQEVDTLKRKVAEQEERQGMKVQALASYLCYFVRRF
notes: Two-hybrid prey construct; also called N-terminal deletion mutant of IREN; IRENΔN

Legend:
[1] = target: B4; assay: yeast two-hybrid, bait TRAF2225-501, prey IREN
Experimental: (§1) Positive clones picked up in the two hybrid screen were subjected to lacZ color development test in SFY526 yeast cells, following Clontech Laboratories' manual (for details see above mentioned publications and patent applications). In brief, transformants were allowed to grow at 30° C. for 2-4 days until reaching about 2 mm in diameter, then were transferred onto Whatman filters. The filters went through a freeze/thaw treatment in order to permeabilize the cells, then soaked in a buffer (16.1 mg/ml Na₂HP0₄ 7H₂0; 5.5 mg/ml NaH₂P0₄′H₂0; 0.75 mg/ml KCl; 0.75 mg/ml MgS0₄′7H₂O, pH=7) containing 0.33 mg/ml X-gal and 0.35 mM β-mercaptoethanol. Colonies were monitored for development of blue color which is an indication for induction of β-galactosidase.
(§2) In order to narrow down the region on the TRAF2 molecule which interacts with IREN two additional constructs were made. One construct comprising the N-terminal part of the TRAF2 molecule, amino acids 1 to 224 designated RING₁₋₂₂₄ comprising the Ring finger and the zinc finger motifs. The second construct included only the C-terminal part of TRAF2, amino acids 225 to 501, covering the “TRAF-domain” as well as an additional 42 amino acids. These two constructs were used as baits in two hybrid tests.

[2] = target: the molecule itself; assay: yeast two-hybrid, bait IREN 10B, prey IREN 10B
[3] = target: B5; assay: yeast two-hybrid, bait TRAF2, prey IREN198-388
Experimental: as §1, §2

[4] = target: the molecule itself; assay: yeast two-hybrid
[5] = target: B4; assay: yeast two-hybrid, bait TRAF2, prey IREN
Experimental: as §1, §2

[6] = target: B2; assay: yeast two-hybrid, bait TRAF2, prey IREN 10B
[7] = target: B5; assay: yeast two-hybrid, bait TRAF2, prey IREN198-541
Experimental: as §1, §2

Binder: B1
binding result [1]: binds

Binder: B2
binding result [2]: binds

Binder: B3
binding result [3]: binds

Binder: B4
binding result [4]: no binding

Binder: B5
binding result [5]: binds
binding result [6]: binds

Binder: B6
binding result [7]: binds

— patent US20090075889A1 (YEDA RESEARCH AND DEVELOPMENT, published 2009)
